# B1: CcdA wild type, displayed on the yeast surface (natural protein)
# chain: MKQRITVTVDSDSYQLLKAYDVNISGLVSTTMQNEARRLRAERWKAENQEGMAEVARFIEMNGSFADENRDW
# Molecular target: CcdB, biotinylated (E. coli (F-plasmid), UniProt P62554 1-101)
# Assay: flow cytometry on cells
# CcdB, biotinylated, sequence (P62554 whole entry): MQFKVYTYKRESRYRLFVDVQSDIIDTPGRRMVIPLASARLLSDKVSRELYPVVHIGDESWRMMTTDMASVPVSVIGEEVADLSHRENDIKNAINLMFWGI
binder,measurement,value
B1,Kd,250 ± 50 pM

# From paper doi:10.1101/2022.04.08.487678 (bioRxiv, 2022)
